How the values were obtained:
[1] = target: SHC014 S Foldon his (prefusion stabilized spike ectodomain) (sarbecovirus SHC014 (clade 1a) | bacteriophage T4); experiment: native gel or EMSA
[2] = target: WIV1 S Foldon his (prefusion stabilized spike ectodomain) (sarbecovirus WIV1 (clade 1a) | bacteriophage T4); experiment: native gel or EMSA

Substance | stoichiometry N [1] | stoichiometry N [2]
SHC014 S Foldon his (prefusion stabilized spike ectodomain) (domain or fragment) | 3 | –
WIV1 S Foldon his (prefusion stabilized spike ectodomain) (domain or fragment) | – | 3
